According to publication PMC3858558 (2013):

Key:
[D-Trp6]LHRH [1] = biological target: T1, [D-Trp6]LHRH (Homo sapiens, UniProt P01148, D-Trp6 analog, 125I-labeled radioligand); assay: radioligand competition assay, tumor membranes (mean of 7 specimens)
[D-Trp6]LHRH [2] = biological target: T1, [D-Trp6]LHRH; assay: radioligand competition assay, tumor membranes (patient 9)
[D-Trp6]LHRH [3] = biological target: T1, [D-Trp6]LHRH; assay: radioligand competition assay, tumor membranes (patient 15)
[D-Trp6]LHRH [4] = biological target: T1, [D-Trp6]LHRH; assay: radioligand competition assay, tumor membranes (patient 12)
[D-Trp6]LHRH [5] = biological target: T1, [D-Trp6]LHRH; assay: radioligand competition assay, tumor membranes (patient 35)
[D-Trp6]LHRH [6] = biological target: T1, [D-Trp6]LHRH; assay: radioligand competition assay, tumor membranes (patient 6)
[D-Trp6]LHRH [7] = biological target: T1, [D-Trp6]LHRH; assay: radioligand competition assay, tumor membranes (patient 4)
[D-Trp6]LHRH [8] = biological target: T1, [D-Trp6]LHRH; assay: radioligand competition assay, tumor membranes (patient 30)

B1: type I LHRH receptor (protein)
chain: MANSASPEQNQNHCSAINNSIPLMQGNLPTLTLSGKIRVTVTFFLFLLSATFNASFLLKLQKWTQKKEKGKKLSRMKLLLKHLTLANLLETLIVMPLDGMWNITVQWYAGELLCKVLSYLKLFSMYAPAFMMVVISLDRSLAITRPLALKSNSKVGQSMVGLAWILSSVFAGPQLYIFRMIHLADSSGQTKVFSQCVTHCSFSQWWHQAFYNFFTFSCLFIIPLFIMLICNAKIIFTLTRVLHQDPHELQLNQSKNNIPRARLKTLKMTVAFATSFTVCWTPYYVLGIWYWFDPEMLNRLSDPVNHFFFLFAFLNPCFDPLIYGYFSL
Kd ([D-Trp6]LHRH [1]): 3.69 nM | Kd ([D-Trp6]LHRH [2]): 3.73 nM | Kd ([D-Trp6]LHRH [3]): 4.81 nM | Kd ([D-Trp6]LHRH [4]): 6.03 nM | Kd ([D-Trp6]LHRH [5]): 2.18 nM | Kd ([D-Trp6]LHRH [6]): 1.37 nM | Kd ([D-Trp6]LHRH [7]): 1.35 nM | Kd ([D-Trp6]LHRH [8]): 6.36 nM
